The values that follow come from US6120991.

One experiment concerns the target integrin α3 β1 (human) (UniProt P26006).
In another experiment the target is integrin α6 β4 (human) (UniProt P23229).

Regarding “epiligrin-ECM^t (epiligrin left on the substratum after HFK were detached from their ECM with trypsin) (ligand)”, the % adherent HFF control cells on epiligrin-ECM^t at 37° C. (time course) (% adherent cells) in the experiment with integrin α3 β1 (human) is 57. The % adherent 51Cr-labeled HFK cells on epiligrin-ECM^t at 4° C. (time course) (% adherent cells) in the experiment with integrin α6 β4 (human) was determined as 28.
